According to patent publication EP4803150A2 (Lyvgen Biopharma Holdings Limited, dated 2026):

Columns and labels:
[1] = target: T1, CD137 (human, UniProt Q07011 24-186); test: FCM or ELISA, graded
T1 construct: Whole on GS-H2-huCD137 reporter cells in the reporter assays; also called 4-1BB

[2] = target: T2, CD19 (human, UniProt P15391 20-556); test: CHO cells overexpressing CD19, graded
T2 construct: whole, on cells
T2 sequence (looked up): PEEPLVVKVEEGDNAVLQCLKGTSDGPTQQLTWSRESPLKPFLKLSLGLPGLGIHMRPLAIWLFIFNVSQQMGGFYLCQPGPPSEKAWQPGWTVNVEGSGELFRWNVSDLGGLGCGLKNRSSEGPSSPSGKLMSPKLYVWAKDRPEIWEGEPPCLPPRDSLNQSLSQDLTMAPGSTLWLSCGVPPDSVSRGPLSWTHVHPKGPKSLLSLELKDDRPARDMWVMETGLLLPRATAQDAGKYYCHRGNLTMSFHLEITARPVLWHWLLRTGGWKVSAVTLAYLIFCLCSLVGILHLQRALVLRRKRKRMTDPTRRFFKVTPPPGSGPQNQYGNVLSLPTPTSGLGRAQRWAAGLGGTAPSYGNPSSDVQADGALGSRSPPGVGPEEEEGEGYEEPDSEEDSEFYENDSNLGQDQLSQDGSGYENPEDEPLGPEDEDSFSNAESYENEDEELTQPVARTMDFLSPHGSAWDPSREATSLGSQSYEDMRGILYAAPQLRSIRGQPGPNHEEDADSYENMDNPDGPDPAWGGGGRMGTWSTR

binding result [1]: binds
binding result [2]: binds
B1: Ly2943 (multi-specific antibody)
chain 1: QVQLQQPGAELVKPGASVKMSCKASGYTFTSYNMHWVKQTPGRGLEWIGAIYPGNGDTSYNQKFKGKATLTADKSSSTAYMQLSSLTSEDSAVYYCARSTYYGGDWYFNVWGAGTTVTVSAASVAAPSVFIFPPSDEQLKSGTASVVCLLNNFYPREAKVQWKVDNALQSGNSQESVTEQDSKDSTYSLSSTLTLSKADYEKHKVYACEVTHQGLSSPVTKSFNRGECGGGGSGGGGSGGGGSGGGGSEVQLVESGGGLVQPGGSLRLSCAASGFTFSTYAMNWVRQAPGKGLEWVGRIRSKYNNYATYYADSVKGRFTISRDDSKNSLYLQMNSLKTEDTAVYYCVRHGNFGNSYVSWFAYWGQGTLVTVSSGGGGSDKTHTCPPCPAPELLGPSVFLFPPKPKDTLMISRTPEVTCVVVDVSHEDPEVKFNWYVDGVEVHNAKTKPREEQYNSTYRVVSVLTVLHQDWLNGKEYKCKVSNKALGAPIEKTISKAKGQPREPQVYTLPPSREEMTKNQVSLWCLVKGFYPSDIAVEWESNGQPENNYKTTPPVLDSDGSFFLYSKLTVDKSRWQQGNVFSCSVMHEALHNHYTQKSLSLSPGKGGGGSGGGGSGGGGSGGGGSQVQLVQSGAEVKKPGASVKVSCKASGYTFAGFEMHWVRQAPGQGLEWMGAIDPKTGGTDYNQKFKDRVTMTRDTSISTAYMELSRLRSDDTAVYYCARDLGYFDVWGQGTLVTVSS
chain 2: QVQLQQSGAELVRPGSSVKISCKASGYAFSSYWMNWVKQRPGQGLEWIGQIWPGDGDTNYNGKFKGKATLTADESSSTAYMQLSSLASEDSAVYFCARRETTTVGRYYYAMDYWGQGTTVTVSSASTKGPSVFPLAPSSKSTSGGTAALGCLVKDYFPEPVTVSWNSGALTSGVHTFPAVLQSSGLYSLSSVVTVPSSSLGTQTYICNVNHKPSNTKVDKKVEPKSCGGGGSGGGGSGGGGSGGGGSQAVVTQEPSLTVSPGGTVTLTCRSSTGAVTTSNYANWVQQKPGQAPRGLIGGTNKRAPWTPARFSGSLLGGKAALTITGAQAEDEADYYCALWYSNLWVFGGGTKLTVLGGGGSDKTHTCPPCPAPELLGPSVFLFPPKPKDTLMISRTPEVTCVVVDVSHEDPEVKFNWYVDGVEVHNAKTKPREEQYNSTYRVVSVLTVLHQDWLNGKEYKCKVSNKALGAPIEKTISKAKGQPREPQVYTLPPSREEMTKNQVSLSCAVKGFYPSDIAVEWESNGQPENNYKTTPPVLDSDGSFFLVSKLTVDKSRWQQGNVFSCSVMHEALHNRFTQKSLSLSPGKGGGGSGGGGSGGGGSGGGGSDIQMTQSPSSLSASVGDRVTITCRASQDIRSNLNWYQQKPGGAVKLLIYYTSRLHSGVPSRFSGSGSGTDYTLTISSLQPEDFATYFCQQSEKLPRTFGGGTKVEIR
chain 3: QIVLSQSPAILSASPGEKVTMTCRASSSVSYIHWFQQKPGSSPKPWIYATSNLASGVPVRFSGSGSGTSYSLTISRVEAEDAATYYCQQWTSNPPTFGGGTKLEIKSSASTKGPSVFPLAPSSKSTSGGTAALGCLVKDYFPEPVTVSWNSGALTSGVHTFPAVLQSSGLYSLSSVVTVPSSSLGTQTYICNVNHKPSNTKVDKKVEPKSC
chain 4: not shown
notes: CD19/CD20/CD3/CD137
